T1: Bik1 (purified from insect cells, 6xHis tag removed) (S. cerevisiae, UniProt P11709 1-440)
T1 sequence (looked up): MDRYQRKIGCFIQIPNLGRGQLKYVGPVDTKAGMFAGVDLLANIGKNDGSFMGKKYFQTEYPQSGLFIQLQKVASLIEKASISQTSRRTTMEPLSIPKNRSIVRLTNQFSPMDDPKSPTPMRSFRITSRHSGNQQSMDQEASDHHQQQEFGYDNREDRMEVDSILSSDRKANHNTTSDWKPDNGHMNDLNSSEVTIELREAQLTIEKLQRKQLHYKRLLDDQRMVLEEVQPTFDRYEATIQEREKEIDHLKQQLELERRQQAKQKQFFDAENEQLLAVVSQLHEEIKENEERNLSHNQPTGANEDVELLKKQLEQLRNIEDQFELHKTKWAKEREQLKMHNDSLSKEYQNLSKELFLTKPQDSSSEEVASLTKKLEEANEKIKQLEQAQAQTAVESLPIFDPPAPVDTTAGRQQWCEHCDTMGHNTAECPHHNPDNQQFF

B1: Bim1 (purified from insect cells, 6xHis tag removed) (natural protein, S. cerevisiae, UniProt P40013 1-344, looked up)
chain: MSAGIGESRTELLTWLNGLLNLNYKKIEECGTGAAYCQIMDSIYGDLPMNRVKFNATAEYEFQTNYKILQSCFSRHGIEKTVYVDKLIRCKFQDNLEFLQWLKKHWIRHKDESVYDPDARRKYRPIITNNSATKPRTVSNPTTAKRSSSTGTGSAMSGGLATRHSSLGINGSRKTSVTQGQLVAIQAELTKSQETIGSLNEEIEQYKGTVSTLEIEREFYFNKLRDIEILVHTTQDLINEGVYKFNDETITGHGNGNGGALLRFVKKVESILYATAEGFEMNDGEDELNDKNLGEHGTVPNQGGYANSNGEVNGNEGSNHDVIMQNDEGEVGVSNNLIIDEETF
B2: Bim1, endogenous in yeast whole cell extract (natural protein, S. cerevisiae (endogenous in CUY28), UniProt P40013 1-344, looked up)
chain: B1 chain
B3: Bik1, endogenous in yeast whole cell extract (natural protein, S. cerevisiae (endogenous in CUY28), UniProt P11709 1-440, looked up)
chain: T1 sequence (looked up)

Experiments:
[1] = biological target: T1, Bik1 (purified from insect cells, 6xHis …); experiment: SEC + other: sucrose gradient sedimentation
[2] = biological target: taxol-stabilized microtubules (bovine brain tubulin) (bovine) (UniProt Q6B856); experiment: co-sedimentation
[3] = biological target: the molecule itself; experiment: SEC + other: sucrose gradient sedimentation

| Binder | stoichiometry N [1] | Kd [2] [µM] | stoichiometry N [3] |
| --- | --- | --- | --- |
| B1 | 1 Bim1 per Bik1 (2:2 tetramer) | 0.5 |  |
| B2 |  |  | 2 |
| B3 |  |  | 2 |

— publication PMC2883945 (Molecular Biology of the Cell, 2010)
